In series [1] the target is T1, Saccharomyces cerevisiae P5C reductase (Pro3, ScP5CR) (Saccharomyces cerevisiae, UniProt P32263).
T1 construct: native full-length enzyme purified from commercial bakers' yeast; untagged; gene-deduced subunit 30,132 Da; native 320 kDa, homodecamer
T1 sequence (P32263 1-286): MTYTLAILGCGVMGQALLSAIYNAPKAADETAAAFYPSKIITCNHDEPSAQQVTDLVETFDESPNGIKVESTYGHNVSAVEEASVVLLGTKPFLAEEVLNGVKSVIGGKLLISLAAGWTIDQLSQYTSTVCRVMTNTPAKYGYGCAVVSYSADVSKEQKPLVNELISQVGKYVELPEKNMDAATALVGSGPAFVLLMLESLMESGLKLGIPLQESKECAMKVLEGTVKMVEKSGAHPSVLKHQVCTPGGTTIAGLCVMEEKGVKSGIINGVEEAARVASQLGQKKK
The experiment in a line: NAD(P)H oxidation at […] nm, nonlinear regression. The format is biochemical.

Substrate in series [2]: NC(=O)C1=CN([C@@H]2O[C@H](COP(=O)(O)OP(=O)(O)OC[C@H]3O[C@@H](n4cnc5c(N)ncnc54)[C@H](O)[C@@H]3O)[C@@H](O)[C@H]2O)C=CC1
The experiment in a line: purified protein. Format: biochemical, Saccharomyces cerevisiae. Conditions: 1 mM L-P5C, Tris-HCl pH 7.2, 30 °C, kcat per monomer.

Substrate in series [3]: NC(=O)C1=CN([C@@H]2O[C@H](COP(=O)(O)OP(=O)(O)OC[C@H]3O[C@@H](n4cnc5c(N)ncnc54)[C@H](OP(=O)(O)O)[C@@H]3O)[C@@H](O)[C@H]2O)C=CC1
The experiment in a line: purified protein. Format: biochemical, Saccharomyces cerevisiae. The following applies: 1 mM L-P5C, Tris-HCl pH 7.2, 30 °C, kcat per monomer.

Substrate in series [4]: O=C(O)[C@@H]1CCC=N1
The series is described as follows: purified protein. The format is biochemical, Saccharomyces cerevisiae. Conditions: 0.5 mM NADH co-substrate, Tris-HCl pH 7.2, 30 °C, DL-P5C used, concentration as L-P5C.

The term Ki denotes the dissociation constant of the complex between target and ligand, obtained from inhibition or displacement. A low value points to tighter binding. Turning to `N=C(N)NCCC[C@H](N)C(=O)O` [arginine], in series [1], the affinity corresponds to a Ki of 19 mM.

B1: Saccharomyces cerevisiae P5C reductase (Pro3, ScP5CR) (Saccharomyces cerevisiae S288C) (protein)
chain: T1 sequence (P32263 1-286)
notes: native full-length enzyme purified from commercial bakers' yeast; untagged; gene-deduced subunit 30,132 Da; native 320 kDa, homodecamer
Usually Km stands for the substrate concentration at which the rate is half of its maximum. By kcat is commonly meant the maximal rate divided by the concentration of active sites. A word on the kcat/Km: it is the turnover number divided by the Michaelis constant. Take B1: in “purified protein [2]”, the Km was found to be 84.0 ± 7.1 µM, the Vmax is 107.9 ± 3.0 μkat (mg protein)^−1, the catalytic constant (kcat) is 3314 s⁻¹ and the kcat/Km came to 3.95e+07 M⁻¹ s⁻¹. Moreover, in “purified protein [3]”, the Km was determined as 133.4 ± 7.3 µM, the Vmax is listed as 294.2 ± 5.7 μkat (mg protein)^−1, the catalytic constant (kcat) is recorded as 10,515 s^−1 and the catalytic efficiency (kcat/Km) is 7.88e+07 M⁻¹ s⁻¹. Further, the Km in “purified protein [4]” was 64.3 ± 5.5 µM.
